Reference: paper PMC7782513, “Structural basis for nuclear import selectivity of pioneer transcription factor SOX2” (Nature Communications, 2021)

Legend:
Conditions in all cases: both partners purified
[1] = biological target: T1, IMPα3 lacking the IMPβ-binding domain (residues 64-521) (human, UniProt O00629 64-521); assay: pull-down; 10 µM His-tagged SOX2 or mutant immobilised on Ni-NTA resin, 20 µM IMPα in 300 µL; washed three times with 50 mM phosphate pH 8.0, 300 mM NaCl, 20 mM imidazole; eluted through TEV cleavage; SDS-PAGE
T1 sequence (looked up): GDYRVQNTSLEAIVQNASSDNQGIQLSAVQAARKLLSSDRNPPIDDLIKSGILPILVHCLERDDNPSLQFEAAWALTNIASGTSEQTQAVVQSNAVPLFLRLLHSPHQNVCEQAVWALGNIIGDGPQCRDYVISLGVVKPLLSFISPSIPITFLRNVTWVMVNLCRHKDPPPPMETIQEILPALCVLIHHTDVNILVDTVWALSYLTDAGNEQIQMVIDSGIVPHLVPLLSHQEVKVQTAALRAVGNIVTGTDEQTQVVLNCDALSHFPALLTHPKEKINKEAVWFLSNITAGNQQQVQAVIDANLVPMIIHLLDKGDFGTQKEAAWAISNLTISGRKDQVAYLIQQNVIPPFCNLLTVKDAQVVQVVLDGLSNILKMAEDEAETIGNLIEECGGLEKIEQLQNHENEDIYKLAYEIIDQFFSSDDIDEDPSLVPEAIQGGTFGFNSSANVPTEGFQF

[2] = biological target: IMPα5 lacking the IMPβ-binding domain (residues 73-538) (human, UniProt P52294 73-538); assay: MST; labelled SOX2 at 50 nM (his-tag labelling kit RED-tris-NTA), unlabelled importins titrated; 20 mM HEPES, 150 mM NaCl, pH 8.0; 25 °C; single binding model
[3] = biological target: T1, IMPα3 lacking the IMPβ-binding domain …; assay: as above
[4] = biological target: IMPα2 lacking the IMPβ-binding domain (residues 70-529) (UniProt P52293 70-529); assay: as above
[5] = biological target: IMPα1 lacking the IMPβ-binding domain (residues 70-529) (human, UniProt P52292 70-529); assay: as above

Sequence of IMPα5 lacking the IMPβ-binding domain (residues 73-538) (P52294 73-538): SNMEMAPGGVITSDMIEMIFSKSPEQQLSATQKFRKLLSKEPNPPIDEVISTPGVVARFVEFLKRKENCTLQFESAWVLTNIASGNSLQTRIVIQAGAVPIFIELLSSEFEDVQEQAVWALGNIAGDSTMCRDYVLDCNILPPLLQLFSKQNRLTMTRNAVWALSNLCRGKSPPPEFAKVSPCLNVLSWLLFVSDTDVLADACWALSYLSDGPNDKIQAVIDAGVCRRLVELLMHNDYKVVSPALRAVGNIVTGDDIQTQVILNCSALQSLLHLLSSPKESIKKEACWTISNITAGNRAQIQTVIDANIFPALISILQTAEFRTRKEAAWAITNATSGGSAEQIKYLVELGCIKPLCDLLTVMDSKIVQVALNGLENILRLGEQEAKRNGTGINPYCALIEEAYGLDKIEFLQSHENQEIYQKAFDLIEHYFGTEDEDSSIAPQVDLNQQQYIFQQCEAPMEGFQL

B1: His-tagged SOX2 K42A (domain or fragment)
chain: not shown
notes: SOX2 HMG domain, human, residues 39-127 of UniProtKB P48431, with K42A; source: E. coli, recombinant, purified; not shown: His6, N-terminal, kept
- binding result [1]: binds

B2: His-tagged SOX2 R114A (domain or fragment)
chain: not shown
notes: SOX2 HMG domain, human, residues 39-127 of UniProtKB P48431, with R114A; source: E. coli, recombinant, purified; not shown: His6, N-terminal, kept
- binding result [1]: binds

B3: His-tagged SOX2 R40A (domain or fragment)
chain: not shown
notes: SOX2 HMG domain, human, residues 39-127 of UniProtKB P48431, with R40A; source: E. coli, recombinant, purified; not shown: His6, N-terminal, kept
- binding result [1]: binds

B4: His-tagged SOX2 R57A (domain or fragment)
chain: not shown
notes: SOX2 HMG domain, human, residues 39-127 of UniProtKB P48431, with R57A; source: E. coli, recombinant, purified; not shown: His6, N-terminal, kept
- binding result [1]: binds

B5: His-tagged SOX2 T116E (to mimic phosphorylation) (domain or fragment)
chain: not shown
notes: SOX2 HMG domain, human, residues 39-127 of UniProtKB P48431, with T116E; source: E. coli, recombinant, purified; not shown: His6, N-terminal, kept
- binding result [1]: binds

B6: His-tagged SOX2 R98A (domain or fragment)
chain: not shown
notes: SOX2 HMG domain, human, residues 39-127 of UniProtKB P48431, with R98A; source: E. coli, recombinant, purified; not shown: His6, N-terminal, kept
- binding result [1]: binds

B7: His-tagged SOX2 HMG domain (residues 39-127), wild type (domain or fragment)
chain: not shown
notes: SOX2 HMG domain, human, residues 39-127 of UniProtKB P48431; pET30a+ construct with a TEV site (ENLYFQS) between tag and SOX2; in MST the labelled SOX2 carries the RED-tris-NTA dye of the his-tag labelling kit; also called SOX2 WT; source: E. coli BL21 (DE3) pLysS, purified (HisTrap, SEC); not shown: His6, N-terminal, kept
- Kd [2]: 247 nM
- Kd [3]: 102 nM
- Kd [4]: 283 nM
- Kd [5]: 447 nM

B8: His-tagged SOX2 K115A (domain or fragment)
chain: not shown
notes: SOX2 HMG domain, human, residues 39-127 of UniProtKB P48431, with K115A; source: E. coli, recombinant, purified; not shown: His6, N-terminal, kept
- binding result [1]: binds

B9: His-tagged SOX2 R56A (domain or fragment)
chain: not shown
notes: SOX2 HMG domain, human, residues 39-127 of UniProtKB P48431, with R56A; source: E. coli, recombinant, purified; not shown: His6, N-terminal, kept
- binding result [1]: binds

B10: His-tagged SOX2 K117A (domain or fragment)
chain: not shown
notes: SOX2 HMG domain, human, residues 39-127 of UniProtKB P48431, with K117A; source: E. coli, recombinant, purified; not shown: His6, N-terminal, kept
- binding result [1]: binds

B11: His-tagged SOX2 R113A (domain or fragment)
chain: not shown
notes: SOX2 HMG domain, human, residues 39-127 of UniProtKB P48431, with R113A; source: E. coli, recombinant, purified; not shown: His6, N-terminal, kept
- binding result [1]: binds

B12: His-tagged SOX2 R43A (domain or fragment)
chain: not shown
notes: SOX2 HMG domain, human, residues 39-127 of UniProtKB P48431, with R43A; also called R43A-SOX2; source: E. coli, recombinant, purified; not shown: His6, N-terminal, kept
- binding result [1]: binds
